Measurements published in patent US20190142905A1 (UREKA SARL, published 2019).
Square brackets hold non-standard residues; d marks the D form. Ends that are not written are not given here. A^u = urea residue with alanine side chain

T1: mouse GLP-1 receptor endogenously expressed in βTC6 cells (mouse, UniProt O35659 22-463)
T1 sequence (looked up): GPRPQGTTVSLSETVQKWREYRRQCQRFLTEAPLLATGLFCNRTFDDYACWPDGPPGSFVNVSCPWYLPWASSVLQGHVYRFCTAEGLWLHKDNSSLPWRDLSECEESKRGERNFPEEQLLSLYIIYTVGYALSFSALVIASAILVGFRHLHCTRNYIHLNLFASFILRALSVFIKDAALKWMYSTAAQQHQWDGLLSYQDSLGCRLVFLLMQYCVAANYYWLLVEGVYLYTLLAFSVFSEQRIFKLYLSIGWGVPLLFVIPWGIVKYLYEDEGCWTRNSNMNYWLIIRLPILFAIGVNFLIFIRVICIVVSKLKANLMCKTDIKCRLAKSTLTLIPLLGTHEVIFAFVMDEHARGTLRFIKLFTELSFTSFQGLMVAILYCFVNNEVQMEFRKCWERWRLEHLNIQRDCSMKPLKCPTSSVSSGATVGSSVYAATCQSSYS


Assays:
Assay in all cases: cell-based or functional assay
[1] = target: T1, mouse GLP-1 receptor endogenously …
[2] = target: human glucagon receptor expressed in transfected CHO cells (human, UniProt P47871 26-477)
[3] = target: T1, mouse GLP-1 receptor endogenously …; remark: listed apart in the source

| Binder | EC50, GLP-1 Functional Assay (cAMP production, HTRF) [1] | EC50, Glucagon Functional Assay (cAMP production, HTRF) [2] | % bioactivity of reference (reference compound 1) [3] |
| --- | --- | --- | --- |
| H[A^u]EGTFTSDL[A^u]KQLEEEAVRLFIEWLKNGGPSSGAPPSKKKKKK [Compound 73] | 0.34 nM |  |  |
| HSQGTFTSDYSKYLDSRRAQDFVQWLXXT (Nle (norleucine) at position 27; A^u at position 28 (urea residue with alanine side chain)) [Compound 35] |  | 0.44 nM |  |
| HSQGTFTSDYSKYLDSRRAQDFVQWXXNT (A^u at position 26 (urea residue with alanine side chain); Nle (norleucine) at position 27) [Compound 58] |  | 35 nM |  |
| HSQGTFTSDYSKYLDSRRAQDFVQXLXNT (A^u at position 25 (urea residue with alanine side chain); Nle (norleucine) at position 27) [Compound 57] |  | 22 nM |  |
| HSQGTFTSDYSKYLDXRRAQDFVQWLXNT (A^u at position 16 (urea residue with alanine side chain); Nle (norleucine) at position 27) [Compound 52] |  | 34 nM |  |
| HAEGTFTSDVSSYLEGQAAKEFIAWLXKGRG (A^u at position 27 (urea residue with alanine side chain)) [Compound 7] | 0.22 nM |  |  |
| HAEGTFTSDVSSYLEGQAAKEFIAWLVKGRX (G^u at position 31 (urea residue with glycine side chain)) [Compound 27] | 0.081 nM |  |  |
| HAEGTFTSDVSSYLEGQAAKEFIAXLVKGRG (A^u at position 25 (urea residue with alanine side chain)) [Compound 3] | 0.46 nM |  |  |
| HAEGTFTSDVSSYXEGQAAKEFIAWLVKGRG (Y^u at position 14 (urea residue with tyrosine side chain)) [Compound 44] | 0.048 nM |  | 150% |
| HAEGTFTSDVSSYLEGQAAKEFIAWLVKXRG (G^u at position 29 (urea residue with glycine side chain)) [Compound 25] | 0.074 nM |  |  |
| HAEGTFTSDVSSYLEGQXAKEFIAWLVKGRG (A^u at position 18 (urea residue with alanine side chain)) [Compound 45] | 0.036 nM |  | 200% |
| XAEGTFTSDVSSYLEGQAAKEFIAWLVKGRG (H^u at position 1 (urea residue with histidine side chain)) [Compound 12] | 280 nM |  |  |
| HXEGTFTSDVSSYLEGQAAKEFIAWLVKGRG (A^c at position 2 (N,N'-linked carbomyl / carbamate residue with alanine side chain)) [Compound 43] |  |  | 9% |
| HAEGTFTSDVSSYLEGQAAKEFIAXLVKGRG (W^u at position 25 (urea residue with tryptophan side chain)) [Compound 4] | 0.26 nM |  |  |
| HAEGTFTSDVSSYLEGQAAKEFIXWLVKGRG (A^u at position 24 (urea residue with alanine side chain)) [Compound 2] | 1.5 nM |  |  |
| HAEGTFTSDVSSYLEGQAAKEFIAWXVKGRG (A^u at position 26 (urea residue with alanine side chain)) [Compound 5] | 0.42 nM |  |  |
| HAEGTFTSDVSSYLEGQAAKEFIAWLVXGRG (K^u at position 28 (urea residue with lysine side chain)) [Compound 46] |  |  | 157% |
| HSQGTFTSDYSKYLDSRRAQDFXQWLXNT (A^u at position 23 (urea residue with alanine side chain); Nle (norleucine) at position 27) [Compound 55] |  | 34 nM |  |
| HSQGTFTSDYSKYXDSRRAQDFVQWLXNT (A^u at position 14 (urea residue with alanine side chain); Nle (norleucine) at position 27) [Compound 51] |  | 68 nM |  |
| HSQGTFTSDYSKYLDSXRAQDFVQWLXNT (A^u at position 17 (urea residue with alanine side chain); Nle (norleucine) at position 27) [Compound 53] |  | 0.67 nM |  |
| HSQGTFTSDYSKYLDSRRAQDFVQWLXNX (Nle (norleucine) at position 27; A^u at position 29 (urea residue with alanine side chain)) [Compound 36] |  | 0.026 nM |  |
